Square brackets hold non-standard residues; d marks the D form. Ends that are not written are not given here. Hyp = O=C(O)[C@@H]1C[C@@H](O)CN1
What was measured:
[1] = target: monoclonal antibody derived from clone 11A5 (Anti HP-FGA MAb Clone: 11A5; hybridoma FERM AP-21698); experiment: competitive ELISA: free peptide prereacted with antibody supernatant, then added to the solid-phased oxidatively modified peptide
[2] = target: monoclonal antibody derived from clone 11G7; experiment: as above
[3] = target: monoclonal antibody derived from clone 11A5 (Anti HP-FGA MAb Clone: 11A5; hybridoma FERM AP-21698); experiment: competitive ELISA; reference is the unmodified peptide ESS-HP (SEQ ID NO: 2)
[4] = target: monoclonal antibody derived from clone 11G7; experiment: as above

ESSSHH[Hyp]GIAEFPSR [synthetic peptide ESS (SEQ ID NO: 4), ESSSHHP(OH)GIAEFPSR, oxidatively modified FGA partial peptide]
IC50 [1]: 0.4 µg/mL | IC50 [2]: 0.4 µg/mL | fold of 50% inhibition against ESS-HP (SEQ ID NO: 2) [3]: > 25 times | fold of 50% inhibition against ESS-HP (SEQ ID NO: 2) [4]: > 25 times
